# Source: PMC3237570
# Biological target: Bbox1 domain of MID1
# Assay: NMR titration; 1H-15N HSQC at 21°C, aqueous solution; 0.15 mM unlabeled alpha45 added to 0.3 mM 15N-labeled Bbox1 (Bbox1 to alpha45 1:0.5)
substance,measurement,value
"alpha45 (45-amino acid region of the C-terminus of alpha4, residues Glu236 to Leu280) (from UniProt P78318 236-280) (domain or fragment)",percent of Bbox1 bound to alpha45 (at 1:0.5),40 to 50%
same,stoichiometry N,1
